The subject of assay [1] is chick embryonic spinal motorneurons. Put plainly: Survival of chick embryonic spinal motorneurons in culture. The assay is classed as cell-based. The protocol:
Motorneuron columns were dissected under a stereomicroscope from the lumbar part of the spinal cord of chick embryos on the 6th day of embryonic development and stored in cold calcium and magnesium-free Hanks balanced salt solution supplemented with glucose (4 g/l) (HBSS). The tissues were washed with HBSS and treated with 0.03% trypsin in HBSS at 37° C. for 20 min with gentle shaking, rinsed with cold HBSS and triturated mildly in 3 steps of 8-passage agitation in 1 ml of cold 0.1% soybean trypsin inhibitor (Sigma) in HBSS through a fire-polished siliconized Pasteur pipette. Each supernatant cell suspension was filtered through 50 μm-Nylon mesh, pooled and layered onto 4 ml of cold 6.8% metrizamide (Fluka) in HBSS-25 mM HEPES (pH7.4) in a 12 ml-siliconized conical glass tube. The tube was centrifuged at 400 g for 15 min at 4° C. and the intermediate layer (0.5 ml) was collected into another siliconized tube containing 6.5 ml of cold culture medium (a mixture of glucose (4 g/l)-supplemented Leibovitz's L-15 medium (Gibco), 0.15 M sodium bicarbonate, heat-inactivated and filtered horse serum and penicillin G (10^5 units/ml) at the ratio of 75:15:10:0.1, freshly prepared and buffered with 5% CO2.) After centrifugation at 100×g for 7 min at 4° C., the supernatant was removed and the cells were gently resuspended in culture medium and plated in Greiner 4-well culture dishes (well diameter, 10 mm; C. A. Greiner und Sohne GmbH, Nurtingen, West Germany) at 1000-2000 cells/well. The dishes had been precoated with poly-DL-ornithine (Sigma, 0.5 mg in 0.15 M sodium borate buffer (pH 8.3) overnight at 4° C., rinsed twice with phosphate-buffered saline (PBS) and subsequently coated with laminin (Gibco; 10 μg/ml in the serum-depleted culture medium) and placed in a 5% CO2-incubator until cell plating (5-6 hrs). Cells were incubated at 37° C. in a humidified 5% CO2- and 95% air-incubator. Samples were added one hr after plating and the culture medium changed after 24 hrs and 72 hrs. The initial cell numbers were counted 3 hrs after plating.
In some experiments motor neurons were retrogradely labeled with a fluorescent dye in vivo before cell preparation (U. Dohrman et al., 1986, Dev. Biol. 118:209-221) to identify the motor neuron cell population. A small hole was made in the shell of eggs which had been incubated for 5 days. Small pieces of rhodamine isothiocyanate crystals (Sigma) were inserted at two or three places into each hind limb thigh and the egg hole was sealed with a cellophane tape. The eggs were incubated for another 24 hrs. Some of the operated embryos were then processed for frozen sections after formaldehyde fixation. […] The other embryos were used for cell preparation using the method described above (18.1.1). After 5 hrs in culture cells were rinsed with warm HBSS, fixed with 4% formaldehyde in PBS at room temperature for 20 min, rinsed with PBS and then mounted in glycerol-PBS (1:1) with glass coverslips. Of the total cells approximately 83% were labeled and identified as motorneurons (FIG. 42.) Most of these labeled motorneurons were large cells and the rest were intermediate-size cells. No small cells were labeled. On the other hand, in experiments in which cells were not labeled with a fluorescent dye about 70% of the total cells were large phase-bright cells with round cell somas, about 20% were intermediate-size neurons (most of them may be motorneurons) and about 10% were small immature neurons (they have neuron-like processes with growth cones but have phase-dark semi-flat cell somas). Non-neuronal cells were either not present or accounted for less than 2%. Taken together, one may conclude that at least 83% of the cells are motorneurons while the remainder consists of non-labeled motorneurons, a small number of unidentified intermediate-size neurons and about 10% immature small neurons. […]

Assay [2] relates to metrizamide gradient purified ventral spinal cord motorneurons. Nature of the assay: CAT activity in metrizamide gradient-purified motorneurons. The conditions noted are these: CNTF 10 ng/ml; purified motorneuron cultures. Format: cell-based, rat. The protocol:
Cultures were harvested by lysing the cells in a 20 mM Tris-HCl (pH 8.6) solution containing 0.1% Triton X-100. Two microliters of the cell lysate was removed and assayed for CAT activity according to the micro-Fonnum procedure (Fonnum, 1975, J. Neurochem. 24:407-409). The final substrate composition consisted of 0.2 mM [1-^14C] Acetyl-CoA (NEN, 54.4 mCi/mmol), 300 mM NaCl, 8 mM choline bromide, 20 mM EDTA, and 0.1 mM neostigmine in 50 mM NaH2PO4 (pH 7.4) buffer. At these enzyme and substrate concentrations, the enzymatic reaction was linear for 90-120 minutes. The specificity of the induction for CAT was tested by the addition of a specific inhibitor of CAT activity, N-hydroxyethyl-4-(1-napthylvinyl) pyridium (HNP), during the assay (White and Cavallito, 1970, J. Neurochem. 17:1579-1589).
The fractionation procedure (Dohrman et al., 1986, Dev. Biol. 118:209-221) was a modification of the method described by Schnaar and Schaffner (1981, J. Neurosci. 1:204-207). Metrizamide was dissolved in F12:MEM(1:1) medium, and a step gradient consisting of 3 ml 17% metrizamide, 3 ml 12% metrizamide and 3 ml 8% metrizamide was prepared. The following steps were all carried out at 4° C. The ventral horn cell suspension (2.5 ml) obtained as described previously was layered over the step gradient, the tube was centrifuged at 2500×g for 20 minutes using a swing-out rotor. […]

The subject of assay [3] is motorneurons in the facial nerve nuclei. Nature of the assay: Unilateral facial nerve lesion in newborn rat with gelfoam implant, motorneuron count. Format: in vivo. The protocol: The facial nerves of newborn rat pups were sectioned unilaterally and small gelfoam implants containing either 5 μg bovine serum albumin or 5 μg CNTF were placed at the lesion sites. […] After one week, the animals were sacrificed and sections of their brainstem, containing a facial nerve nucleus on the same side as the lesioned nerve (ipsilateral to the lesion) and a facial nerve nucleus on the side opposite to the lesion (contralateral to the lesion) were produced. The contralateral facial nucleus served as an internal control. Facial nucleus sections were stained with either Nissl stain (to stain motorneurons) or with antibody to glial fibrillary acidic protein (to detect the respose of glial cells to injury).

Setting [4] is: gelfoam implant impregnated with CNTF, one week.
Setting [5] is: gelfoam with 5 μg purified rat sciatic nerve CNTF, one week after lesion.
The mark [6] stands for this setting: single animals, gelfoam with 5 μg purified rat sciatic nerve CNTF, one week after lesion.

“And” between values parts separate entries of the source, which are not always exact repeats. Equal values may be shown once. Read-outs that look alike come from different tables or passages of the source.

B1: CNTF: ciliary neurotrophic factor; recombinant rat CNTF in Sections 10, 15, 17, purified rat sciatic nerve CNTF in Section 11; see endpoint conditions (protein, UniProt P20294 1-200, looked up)
Ciliary neurotrophic factor: MAFAEQTPLTLHRRDLCSRSIWLARKIRSDLTALMESYVKHQGLNKNINLDSVDGVPVASTDRWSEMTEAERLQENLQAYRTFQGMLTKLLEDQRVHFTPTEGDFHQAIHTLMLQVSAFAYQLEELMVLLEQKIPENEADGMPATVGDGGLFEKKLWGLKVLQELSQWTVRSIHDLRVISSHQMGISALESHYGAKDKQM
Consider B1, for which the “concentration at which the highest survival effect was obtained” value in assay [1] (3 days in culture) amounted to 1 ng/mL. For the same molecule, the “highest survival effect of the concentration-response curve” value in assay [1] (3 days in culture, CNTF = recombinant rat) worked out at 64%. For the same molecule, the “Motoneuron survival (%)” value in assay [1] (after 3 days in culture, mean ± SEM (n = 4), IGF-I 1 μg/ml, Basic FGF 30 ng/ml, CNTF 1.5 ng/ml) came to 60.7 ± 5.8%. Also, the Survival result in assay [1] (after 3 days in culture, one concentration per molecule, Table VI, CNTF rat, rec.) is listed as “+ + +”. Further, the EC50 in assay [1] (motorneuron survival, 3 days in culture) was found to be 0.023 ng/mL. The “EC50 (the concentration required for 50% survival)” value in assay [1] (recombinant rat CNTF, day 3) is recorded as “about 20 pg/ml”. In addition, the EC50 in assay [1] (recombinant rat CNTF, day 3, read-out: EC50 (the concentration required for 50% survival)) was roughly 1 pM. For the same molecule, the “increase in CAT activity versus untreated cultures” value in assay [2] was determined as 10 fold. The “facial nerve motorneurons rescued that would normally have died after axotomy” value in assay [3] (CNTF applied to cut stump of newborn rat facial nerve) is “at least 60%”. In assay [3] (setting [4]), the “loss of motorneurons ipsilateral to the lesion” value is given as roughly 30% and the “motorneuron pool ipsilateral to the lesion, of normal” value is 70%. Besides, in assay [3] (gelfoam with 5 μg CNTF), the “gliosis in facial nuclei ipsilateral to lesion (anti-GFAP staining), versus BSA treated rats” value is given as “comparable amount of gliosis”. Also, in assay [3] (setting [5]), the “Count of motorneurons in the facial nerve nuclei, Contralateral (Control side), group mean (in brackets)” value was “(3301)” and the “Count of motorneurons in the facial nerve nuclei, Lesion-side, group mean (in brackets)” value was “(2120)”. In assay [3] (setting [6]), the “Count of motorneurons in the facial nerve nuclei, Contralateral (Control side)” value is 3425 and 2990 and 3490; the “Count of motorneurons in the facial nerve nuclei, Lesion-side” value is 2205 and 3445 and 1270 and 3095.

The values are drawn from patent US6602687B1, “DNA encoding human ciliary neurotrophic factor and method for producing the protein encoded thereby” (Regeneron Pharmaceuticals, Inc., priority 1989, dated 2003).
